The values below come from patent publication US20240350586A1 (TSINGHUA UNIVERSITY, published 2024).

Assay [1] deals with T1, GFP-CCT2 D3 (aa369-535 of CCT2) (human, UniProt P78371 369-535).
T1 construct: also called C-terminal one-third of CCT2; not shown: GFP tag
T1 sequence: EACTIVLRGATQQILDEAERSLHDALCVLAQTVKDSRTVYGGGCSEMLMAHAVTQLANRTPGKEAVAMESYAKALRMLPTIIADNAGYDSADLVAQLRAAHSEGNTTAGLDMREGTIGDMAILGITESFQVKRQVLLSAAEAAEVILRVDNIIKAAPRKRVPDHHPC
The experiment in a line: co-IP of GFP-tagged CCT2 variants with T7-LC3C in HEK293T. An excerpt: The cells were permeabilized with digitonin before fixation. [0136] (G) Quantification of LC3 around Q103-HTT IB (mean±SEM) as shown in (F). […] [0137] […] The cells were permeabilized with digitonin before immunoblot analysis. LE, long exposure; SE, short exposure. [0138] (I) Quantification of normalized Q103-HTT (mean±SEM) in (H). […] [0139] […] The VLIR motif VIL is highlighted in red. [0140] […] The data are representative of three independent experiments. [0141] […] The cells were permeabilized with digitonin before fixation. [0142] (M) Quantification of LC3 around IBs (mean±SEM) as shown in (L). […] [0143] […] [0144] (O) Quantification of normalized Q103-HTT (mean±SEM) in (N).
Co-immunoprecipitation was performed essentially as described before. In brief, 24 h after transfection, the cells were collected and lysed on ice for 30 min in co-IP buffer (50 mM Tris/HCl pH 7.4, 150 mM NaCl, 1 mM EDTA, 0.5% NP40) with protease inhibitor mixture, and the lysates were cleared by centrifugation. The resulting supernatants were incubated with indicated agarose or magnetic beads and rotated at 4° C. for 3 h. The agarose was washed five times with co-IP buffer. As for the BFP-tagged Q103, the supernatants were incubated with rabbit anti-BFP antibodies and Protein A/G PLUS-Agarose according to the manufacturers' protocol. […]

The target of assay [2] is T2, HA-CCT2 (chaperonin subunit CCT2, wild type, N-terminal HA tag) (human, UniProt P78371 2-535).
T2 construct: Expressed in HEK293T or U2OS from pFUGW-HA-CCT2; CCT genes were amplified from HEK293T cDNA; also called WT CCT2; HA-CCT2 WT; not shown: N-terminal HA tag
T2 sequence: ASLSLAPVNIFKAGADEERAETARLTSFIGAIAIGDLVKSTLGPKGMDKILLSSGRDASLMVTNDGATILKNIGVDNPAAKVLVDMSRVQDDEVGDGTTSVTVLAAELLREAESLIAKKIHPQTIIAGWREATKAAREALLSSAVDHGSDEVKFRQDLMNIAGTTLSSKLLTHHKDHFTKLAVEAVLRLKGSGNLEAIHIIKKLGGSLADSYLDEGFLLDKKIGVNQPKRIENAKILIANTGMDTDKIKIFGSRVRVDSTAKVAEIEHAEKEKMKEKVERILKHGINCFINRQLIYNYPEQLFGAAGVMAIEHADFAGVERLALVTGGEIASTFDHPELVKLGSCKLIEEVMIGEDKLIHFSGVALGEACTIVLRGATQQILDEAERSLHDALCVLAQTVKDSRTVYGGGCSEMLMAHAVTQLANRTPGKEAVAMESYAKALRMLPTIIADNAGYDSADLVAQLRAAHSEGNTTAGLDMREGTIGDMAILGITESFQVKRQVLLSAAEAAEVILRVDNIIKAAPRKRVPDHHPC
The experiment in a line: co-IP of HA-CCT2 with T7-LC3C in HEK293T with knockdown of P62, NBR1 and TAX1BP1. Here is the method:
(§1) The data are representative of three independent experiments. [0146] […] The data are representative of three independent experiments. [0147] […] The data are representative of three independent experiments. [0148] […] The interaction of the peptides with T7-GABARAP or T7-GABARAPL1 proteins was analyzed by in vitro pull-down. The data are representative of three independent experiments. [0149] […] The data are representative of three independent experiments. [0150] […] [0151] (K) Quantification of Q103-HTT-GFP area/DAPI area (mean±SEM) as shown in [0152] (J). 48 h represents IB accumulation stage and 72 h represents clearance stage. P values are indicated (two-tailed t test, >20 views from three independent experiments). [0153] […] The data are representative of three independent experiments. [0154] […] The data are representative of three independent experiments. [0155] […] The data are representative of three independent experiments.
(§2) Co-immunoprecipitation was performed essentially as described before. In brief, 24 h after transfection, the cells were collected and lysed on ice for 30 min in co-IP buffer (50 mM Tris/HCl pH 7.4, 150 mM NaCl, 1 mM EDTA, 0.5% NP40) with protease inhibitor mixture, and the lysates were cleared by centrifugation. The resulting supernatants were incubated with indicated agarose or magnetic beads and rotated at 4° C. for 3 h. The agarose was washed five times with co-IP buffer.

The next assay deals with T3, HSPA9-HA (Homo sapiens (Human), UniProt P38646 1-679, limits assumed).
T3 construct: Plasmid pCMV3-HSPA9-HA (SinoBiological HG16926-CY); also called long-form of HSPA9; not shown: C-terminal HA tag
T3 sequence (P38646 whole entry): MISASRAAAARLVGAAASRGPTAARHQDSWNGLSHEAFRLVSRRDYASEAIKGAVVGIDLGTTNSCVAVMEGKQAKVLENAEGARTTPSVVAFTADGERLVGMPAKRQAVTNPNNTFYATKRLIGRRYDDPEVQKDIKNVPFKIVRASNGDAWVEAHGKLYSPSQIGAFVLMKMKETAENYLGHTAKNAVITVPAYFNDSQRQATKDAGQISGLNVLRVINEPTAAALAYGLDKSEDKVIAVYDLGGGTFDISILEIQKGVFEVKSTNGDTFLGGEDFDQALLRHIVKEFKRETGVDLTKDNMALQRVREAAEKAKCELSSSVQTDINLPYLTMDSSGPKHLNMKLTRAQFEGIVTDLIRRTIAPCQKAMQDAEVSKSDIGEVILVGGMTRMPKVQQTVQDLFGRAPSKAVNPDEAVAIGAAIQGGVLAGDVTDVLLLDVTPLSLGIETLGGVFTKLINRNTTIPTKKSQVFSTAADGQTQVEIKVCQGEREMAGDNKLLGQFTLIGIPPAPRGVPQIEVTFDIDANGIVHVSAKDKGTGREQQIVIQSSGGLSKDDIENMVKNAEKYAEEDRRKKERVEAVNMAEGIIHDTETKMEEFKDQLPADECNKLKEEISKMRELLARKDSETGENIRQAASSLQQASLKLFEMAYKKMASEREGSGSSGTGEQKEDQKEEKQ
The experiment in a line: co-IP with T7-LC3C in HEK293T. Here is the method:
as §1, §2

The target of another assay is T4, HA-CCT5 (human, UniProt P48643 2-541).
T4 construct: not shown: N-terminal HA tag
T4 sequence (P48643 2-541 limits assumed): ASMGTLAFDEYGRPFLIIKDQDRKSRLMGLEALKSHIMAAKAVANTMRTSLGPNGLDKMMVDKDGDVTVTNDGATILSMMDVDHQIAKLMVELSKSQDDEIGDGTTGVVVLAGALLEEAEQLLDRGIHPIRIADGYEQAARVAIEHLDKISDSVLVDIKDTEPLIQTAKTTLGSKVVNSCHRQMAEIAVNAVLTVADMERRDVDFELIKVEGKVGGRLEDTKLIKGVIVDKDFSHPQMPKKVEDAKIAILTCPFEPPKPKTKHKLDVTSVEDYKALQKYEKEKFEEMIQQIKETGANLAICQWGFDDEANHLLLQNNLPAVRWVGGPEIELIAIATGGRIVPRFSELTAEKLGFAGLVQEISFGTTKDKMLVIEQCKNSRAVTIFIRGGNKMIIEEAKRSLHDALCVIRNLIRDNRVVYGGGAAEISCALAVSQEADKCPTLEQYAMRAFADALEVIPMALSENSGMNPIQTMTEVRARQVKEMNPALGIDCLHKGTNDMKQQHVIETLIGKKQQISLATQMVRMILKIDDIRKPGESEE
The experiment in a line: co-IP with T7-LC3C in HEK293T. Here is the method:
as §1, §2

A further assay deals with T5, HA-CCT1 (human, UniProt P17987 1-556).
T5 construct: Amplified from HEK293T cDNA; not shown: N-terminal HA tag
T5 sequence (P17987 whole entry): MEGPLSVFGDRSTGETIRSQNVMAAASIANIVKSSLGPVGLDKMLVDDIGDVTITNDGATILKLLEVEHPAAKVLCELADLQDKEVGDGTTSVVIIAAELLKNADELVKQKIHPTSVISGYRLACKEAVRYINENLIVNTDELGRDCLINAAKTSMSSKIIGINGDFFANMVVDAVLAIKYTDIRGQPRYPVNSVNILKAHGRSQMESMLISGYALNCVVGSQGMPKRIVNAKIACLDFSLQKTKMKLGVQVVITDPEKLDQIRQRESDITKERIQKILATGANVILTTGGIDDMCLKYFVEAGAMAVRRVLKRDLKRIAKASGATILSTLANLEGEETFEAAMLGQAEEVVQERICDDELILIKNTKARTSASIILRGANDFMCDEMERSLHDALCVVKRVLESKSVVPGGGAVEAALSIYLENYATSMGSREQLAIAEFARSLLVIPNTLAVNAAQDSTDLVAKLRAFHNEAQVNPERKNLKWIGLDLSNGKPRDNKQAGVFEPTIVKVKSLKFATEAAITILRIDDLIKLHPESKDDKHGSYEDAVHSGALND
The assay can be described thus: co-IP with T7-LC3C in HEK293T. Here is the method: as §1, §2

In the next assay the target is T6, HSP90AB1-HA (Homo sapiens (Human), UniProt P08238 2-724).
T6 construct: Plasmid pCDNA3-HSP90AB1-HA (addgene 22487); not shown: C-terminal HA tag
T6 sequence (P08238 2-724 limits assumed): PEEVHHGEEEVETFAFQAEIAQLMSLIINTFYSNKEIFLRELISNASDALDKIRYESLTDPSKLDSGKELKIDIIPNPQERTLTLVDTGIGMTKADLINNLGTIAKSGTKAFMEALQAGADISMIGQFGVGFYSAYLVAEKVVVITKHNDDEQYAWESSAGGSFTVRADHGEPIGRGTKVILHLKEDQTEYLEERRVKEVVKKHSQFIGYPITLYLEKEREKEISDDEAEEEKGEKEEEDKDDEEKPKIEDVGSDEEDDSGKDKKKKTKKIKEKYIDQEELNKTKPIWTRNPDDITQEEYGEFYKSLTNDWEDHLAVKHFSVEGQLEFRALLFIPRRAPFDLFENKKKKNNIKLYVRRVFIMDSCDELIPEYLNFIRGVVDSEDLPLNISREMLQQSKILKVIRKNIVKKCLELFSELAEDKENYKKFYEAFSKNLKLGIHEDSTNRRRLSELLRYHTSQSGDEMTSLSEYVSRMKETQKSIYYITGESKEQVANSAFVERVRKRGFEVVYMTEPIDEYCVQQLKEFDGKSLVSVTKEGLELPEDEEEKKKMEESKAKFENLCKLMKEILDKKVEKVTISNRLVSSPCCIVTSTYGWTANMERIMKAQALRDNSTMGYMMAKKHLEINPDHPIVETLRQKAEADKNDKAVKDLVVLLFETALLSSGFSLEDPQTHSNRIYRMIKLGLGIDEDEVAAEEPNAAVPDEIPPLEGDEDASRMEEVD
The experiment in a line: co-IP with T7-LC3C in HEK293T. Here is the method: as §1, §2

B1: T7-LC3C (expressed in cells) (other, UniProt Q9BXW4 1-126, looked up)
chain: MPPPQKIPSVRPFKQRKSLAIRQEEVAGIRAKFPNKIPVVVERYPRETFLPPLDKTKFLVPQELTMTQFLSIIRSRMVLRATEAFYLLVNNKSLVSMSATMAEIYRDYKDEDGFVYMTYASQETFG
notes: Expressed from pCDNA3-T7-LC3C; not shown: T7 tag
Consider B1, for which the binding result in assay [1] is recorded as “binds”; in assay [2] it was “binds”; in the assay with HSPA9-HA it was “binds”; in the assay with HA-CCT5 it was “no binding”; with HA-CCT1, “binds”; with HSP90AB1-HA, “no binding”.
